Measured values as given in paper PMC3412936.

Experiments:
Assay in all cases: ITC
[1] = molecular target: WW1 domain (residues 16-50) of human WWOX (human) (UniProt Q9NZC7)
[2] = molecular target: WW1_R25E mutant of the WW1 domain of WWOX (human) (UniProt Q9NZC7)
[3] = molecular target: WW2 domain (residues 57-91) of human WWOX (human) (UniProt Q9NZC7)
[4] = molecular target: WW1_R25A mutant of the WW1 domain of WWOX (human) (UniProt Q9NZC7)
[5] = molecular target: engineered WW1-WW2rw tandem domains of WWOX (human) (UniProt Q9NZC7)
engineered WW1-WW2rw tandem domains of WWOX (human), sequence (Q9NZC7 16-91 E66R/Y85W): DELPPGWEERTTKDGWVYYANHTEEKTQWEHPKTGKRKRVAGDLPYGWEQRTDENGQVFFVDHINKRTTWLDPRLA

[6] = molecular target: WW2_Y85W mutant of the WW2 domain of WWOX (human) (UniProt Q9NZC7)
WW2_Y85W mutant of the WW2 domain of WWOX (human), sequence (Q9NZC7 57-91 Y85W): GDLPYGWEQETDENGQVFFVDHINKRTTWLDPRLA

[7] = molecular target: WW1-WW2 tandem domains (residues 16-91) of human WWOX (human) (UniProt Q9NZC7)
WW1-WW2 tandem domains (residues 16-91) of human WWOX (human), sequence (Q9NZC7 16-91): as the sequence (Q9NZC7 16-91 E66R/Y85W) above, with R51E, W70Y counted along it

[8] = molecular target: WW2_E66R mutant of the WW2 domain of WWOX (human) (UniProt Q9NZC7)
WW2_E66R mutant of the WW2 domain of WWOX (human), sequence (Q9NZC7 57-91 E66R): as the sequence (Q9NZC7 57-91 Y85W) above, with E10R, W29Y counted along it

[9] = molecular target: WW1_W44Y mutant of the WW1 domain of WWOX (human) (UniProt Q9NZC7)
WW1_W44Y mutant of the WW1 domain of WWOX (human), sequence (Q9NZC7 16-50 W44Y): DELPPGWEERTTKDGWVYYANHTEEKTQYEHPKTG

[10] = molecular target: engineered WW2_RW domain of WWOX (E66R/Y85W double-mutant of WW2 domain) (human) (UniProt Q9NZC7)
engineered WW2_RW domain of WWOX (E66R/Y85W double-mutant of WW2 domain) (human), sequence (Q9NZC7 57-91 E66R/Y85W): as the sequence (Q9NZC7 57-91 Y85W) above, with E10R counted along it

WW1 domain (residues 16-50) of human WWOX (human), sequence (Q9NZC7 16-50): as the sequence (Q9NZC7 16-50 W44Y) above, with Y29W counted along it
WW2 domain (residues 57-91) of human WWOX (human), sequence (Q9NZC7 57-91): as the sequence (Q9NZC7 57-91 Y85W) above, with W29Y counted along it
WW1_R25E mutant of the WW1 domain of WWOX (human), sequence (Q9NZC7 16-50 R25E): as the sequence (Q9NZC7 16-50 W44Y) above, with R10E, Y29W counted along it
WW1_R25A mutant of the WW1 domain of WWOX (human), sequence (Q9NZC7 16-50 R25A): as the sequence (Q9NZC7 16-50 W44Y) above, with R10A, Y29W counted along it

In the case of “PY3_P-2A alanine mutant of the WBP2_PY3 peptide”, the Kd [1] is reported as 250 µM and the dH [1] is reported as -18 kcal/mol.
For “PY3_Q-3A alanine mutant of the WBP2_PY3 peptide”, the Kd [1] was 149 µM and the dH [1] was -12.4 kcal/mol.
In the case of “PY3_Y+3A alanine mutant of the WBP2_PY3 peptide”, the Kd [1] is reported as 554 µM and the dH [1] is reported as -4.95 kcal/mol.
For “PY3_Y+4A alanine mutant of the WBP2_PY3 peptide”, the Kd [1] was 229 µM and the dH [1] was -8.35 kcal/mol.
Substance “WBP2_PY3 peptide (12-mer spanning the PY3 PPXY motif of human WBP2)” has a Kd [1] of 122 µM, a dH [1] of -12.6 kcal/mol and a Kd [2] of over 1000 µM. It also gave a Kd [3] of over 1000 µM, a Kd [4] of over 1000 µM and a Kd [5] of 59 µM. It also gave a dH [5] of -8.02 kcal/mol, a Kd [6] of over 1000 µM and a Kd [7] of 49 µM. It also gave a dH [7] of -8.46 kcal/mol, a stoichiometry N [7] of 1.05 and a Kd [8] of over 1000 µM. The Kd [9] was over 1000 µM, the Kd [10] was 91 µM and the dH [10] was -5.2 kcal/mol.
